Data from paper PMC10958042.

B1: ATGL (PNPLA2, patatin-like phospholipase domain-containing protein 2), human, full length / G0S2 (G0/G1 switch protein 2), human (parent)
chain 1: MFPREKTWNISFAGCGFLGVYYVGVASCLREHAPFLVANATHIYGASAGALTATALVTGVCLGEAGAKFIEVSKEARKRFLGPLHPSFNLVKIIRSFLLKVLPADSHEHASGRLGISLTRVSDGENVIISHFNSKDELIQANVCSGFIPVYCGLIPPSLQGVRYVDGGISDNLPLYELKNTITVSPFSGESDICPQDSSTNIHELRVTNTSIQFNLRNLYRLSKALFPPEPLVLREMCKQGYRDGLRFLQRNGLLNRPNPLLALPPARPHGPEDKDQAVESAQAEDYSQLPGEDHILEHLPARLNEALLEACVEPTDLLTTLSNMLPVRLATAMMVPYTLPLESALSFTIRLLEWLPDVPEDIRWMKEQTGSICQYLVMRAKRKLGRHLPSRLPEQVELRRVQSLPSVPLSCAAYREALPGWMRNNLSLGDALAKWEECQRQLLLGLFCTNVAFPPEALRMRAPADPAPAPADPASPQHQLAGPAPLLSTPAPEARPVIGALGL
chain 2: METVQELIPLAKEMMAQKRKGKMVKLYVLGSVLALFGVVLGLMETVCSPFTAARRLRDQEAAVAELQAALERQALQKQALQEKGKQQDTVLGGRALSNRQHAS
B2: ATGL (PNPLA2, patatin-like phospholipase domain-containing protein 2), human, full length / perilipin-1, mouse (mPlin1) (parent)
chain 1: B1 chain 1
chain 2: MSMNKGPTLLDGDLPEQENVLQRVLQLPVVSGTCECFQKTYNSTKEAHPLVASVCNAYEKGVQGASNLAAWSMEPVVRRLSTQFTAANELACRGLDHLEEKIPALQYPPEKIASELKGTISTRLRSARNSISVPIASTSDKVLGATLAGCELALGMAKETAEYAANTRVGRLASGGADLALGSIEKVVEFLLPPDKESAPSSGRQRTQKAPKAKPSLVRRVSTLANTLSRHTMQTTAWALKQGHSLAMWIPGVAPLSSLAQWGASAAMQVVSRRQSEVRVPWLHNLAASQDESHDDQTDTEGEETDDEEEEEESEAEENVLREVTALPNPRGLLGGVVHTVQNTLRNTISAVTWAPAAVLGTVGRILHLTPAQAVSSTKGRAMSLSDALKGVTDNVVDTVVHYVPLPRLSLMEPESEFRDIDNPSAEAERKGSGARPASPESTPRPGQPRGSLRSVRGLSAPSCPGLDDKTEASARPGFLAMPREKPARRVSDSFFRPSVMEPILGRAQYSQLRKKS

Variants of: B1
Assay: LUMIER: Protein A-ATGL variant and firefly luciferase-partner co-expressed in HEK293T, lysates immunoprecipitated on IgG-coated plates, co-precipitated partner measured as luciferase luminescence
Settings: with G0S2 (G0/G1 switch protein 2), transient co-transfection, IgG-coated LUMITRAC plates, 2 h at 4 °C, three PBS washes, Bright-Glo luciferase reagent, triplicates per assay, two …, parent: 0.26, not graded, scale: log2 fold change of co-immunoprecipitated luminescence relative to wild-type ATGL within each experiment

Variant | screen value
chain 1 A453E | 0.72
chain 1 G59L | -2.12
chain 1 E368A | -0.233
chain 1 G16K | -0.435

Other lines, results leading:

screen value | Variant
-1.96 | chain 1 N180L
-2.73 | chain 1 N39E

Same assay, conditions: with G0S2 (G0/G1 switch protein 2), transient co-transfection, IgG-coated LUMITRAC plates, 2 h at 4 °C, three PBS washes, Bright-Glo luciferase reagent, triplicates per assay, two …, parent: 0.56, not graded, scale: log2 fold change of co-immunoprecipitated luminescence relative to wild-type ATGL within each experiment

Variant | screen value
chain 1 A453E | -0.082
chain 1 G59L | -2.22
chain 1 E368A | -0.215
chain 1 G16K | -0.755

The remaining lines, values ahead:

screen value | Variant
-1.94 | chain 1 N180L
-2.67 | chain 1 N39E

Variants of: B2
Assay: as above
Settings: with perilipin-1, mouse (mPlin1), transient co-transfection, IgG-coated LUMITRAC plates, 2 h at 4 °C, three PBS washes, Bright-Glo luciferase reagent, triplicates per assay, two …, parent: 0.26, not graded, scale: log2 fold change of co-immunoprecipitated luminescence relative to wild-type ATGL within each experiment

Variant | screen value
chain 1 A104E | -1.07
chain 1 E125L | -0.268
chain 1 I70A | -0.501
chain 1 I70K | -0.495
chain 1 F348E | 0.112
chain 1 F35E | -0.17
chain 1 F35A | -0.185
chain 1 H109E | -0.442
chain 1 K275A | -0.55
chain 1 G153A | -0.209
chain 1 G153K | -0.674
chain 1 G16K | 0.265
chain 1 A453E | 0.218
chain 1 G189E | -1
chain 1 G59L | -0.00134
chain 1 A434L | 0.0211
chain 1 L62A | 0.475
chain 1 E314A | -0.247
chain 1 E368A | -0.0883
chain 1 G66A | -0.406
chain 1 G66L | -0.803
chain 1 K92L | 0.107

Further lines, results first:

screen value | Variant
-0.504 | chain 1 R163K
-0.8 | chain 1 P86K
-1.36 | chain 1 P103K
-0.205 | chain 1 V328A
-0.664 | chain 1 L178A
-0.0832 | chain 1 N39E
-0.788 | chain 1 R95K
0.0463 | chain 1 R95L
-0.452 | chain 1 S158E
-0.232 | chain 1 S158A
0.0206 | chain 1 S87A
-0.527 | chain 1 S87E
-0.67 | chain 1 P258L
0.313 | chain 1 Q396A
-0.00146 | chain 1 Q140A
-0.355 | chain 1 Q140K
-0.304 | chain 1 V127L
-0.915 | chain 1 L159A
-0.624 | chain 1 L261E
-0.0219 | chain 1 Y415A
-0.000717 | chain 1 R351L
-0.552 | chain 1 P156K
0.457 | chain 1 L62K
-0.529 | chain 1 S106K
-0.0364 | chain 1 T41A
0.0119 | chain 1 N180L
-1.19 | chain 1 L102K
-0.367 | chain 1 R329E
0.128 | chain 1 R113L
-0.0594 | chain 1 R113K

Same assay, conditions: with perilipin-1, mouse (mPlin1), transient co-transfection, IgG-coated LUMITRAC plates, 2 h at 4 °C, three PBS washes, Bright-Glo luciferase reagent, triplicates per assay, two …, parent: -0.37, not graded, scale: log2 fold change of co-immunoprecipitated luminescence relative to wild-type ATGL within each experiment

Variant | screen value
chain 1 A104E | -0.823
chain 1 E125L | -0.225
chain 1 I70A | -0.781
chain 1 I70K | -0.759
chain 1 F348E | -0.626
chain 1 F35E | -0.197
chain 1 F35A | -0.158
chain 1 H109E | -0.386
chain 1 K275A | -0.709
chain 1 G153A | -0.215
chain 1 G153K | -0.772
chain 1 G16K | 0.718
chain 1 A453E | 0.0778
chain 1 G189E | -1.43
chain 1 G59L | -0.613
chain 1 A434L | 0.452
chain 1 L62A | -0.248
chain 1 E314A | 0.211
chain 1 E368A | -0.602
chain 1 G66A | 0.198
chain 1 G66L | -0.433
chain 1 K92L | 0.166

Continued, values first:

screen value | Variant
-0.582 | chain 1 R163K
-0.498 | chain 1 P86K
-0.898 | chain 1 P103K
-0.0406 | chain 1 V328A
-0.558 | chain 1 N39E
-0.635 | chain 1 R95K
0.332 | chain 1 R95L
-0.376 | chain 1 S158E
0.188 | chain 1 S158A
-0.536 | chain 1 S87A
-0.625 | chain 1 S87E
-1.35 | chain 1 P258L
-0.0639 | chain 1 Q396A
-0.191 | chain 1 Q140A
0.00731 | chain 1 Q140K
-0.288 | chain 1 V127L
0.395 | chain 1 L159A
-1.14 | chain 1 L261E
-0.00379 | chain 1 Y415A
-0.298 | chain 1 R351L
-0.726 | chain 1 P156K
0.284 | chain 1 L62K
-0.667 | chain 1 S106K
-0.45 | chain 1 T41A
-0.626 | chain 1 N180L
-0.807 | chain 1 L102K
-0.537 | chain 1 R329E
0.163 | chain 1 R113L
0.272 | chain 1 R113K

Same assay, conditions: with perilipin-1, mouse (mPlin1), transient co-transfection, IgG-coated LUMITRAC plates, 2 h at 4 °C, three PBS washes, Bright-Glo luciferase reagent, triplicates per assay, two …, parent: -0.37, not graded, value at the no-binding floor (a bound), scale: log2 fold change of co-immunoprecipitated luminescence relative to wild-type ATGL within each experiment

screen value | Variant
-1.6 | chain 1 L178A
